Laboratory results: paper PMC11108873, “Emergence of a clinical Salmonella enterica serovar 1,4,[5], 12: i:-isolate, ST3606, in China with susceptibility decrease to ceftazidime-avibactam carrying a novel blaCTX-M-261 variant and a blaNDM-5” (European Journal of Clinical Microbiology & Infectious …, 2024)

Assays:
Test in all cases: purified protein
Conditions in all cases: 50 mM sodium phosphate pH 7.0, 30 °C, BSA added to enzyme dilution
[1] = system: CC(C)(O/N=C(\C(=O)N[C@@H]1C(=O)N2C(C(=O)[O-])=C(C[n+]3ccccc3)CS[C@H]12)c1csc(N)n1)C(=O)O
[2] = system: CO/N=C(\C(=O)N[C@@H]1C(=O)N2C(C(=O)O)=C(COC(C)=O)CS[C@H]12)c1csc(N)n1
[3] = system: CO/N=C(\C(=O)N[C@@H]1C(=O)N2C(C(=O)O)=C(CSc3nc(=O)c(=O)[nH]n3C)CS[C@H]12)c1csc(N)n1
[4] = system: CO/N=C(\C(=O)N[C@@H]1C(=O)N2C(C(=O)[O-])=C(C[N+]3(C)CCCC3)CS[C@H]12)c1csc(N)n1

CTX-M-1 (Escherichia coli) gave a Km [1] of 328.8 ± 42 µM, a kcat [1] of 43.6 ± 3.7 s⁻¹ and a kcat/Km [1] of 130000 M⁻¹ s⁻¹. For the same substance, the Km [2] was 17.8 ± 2.5 µM, the kcat [2] was 111 ± 25 s⁻¹ and the kcat/Km [2] was 6.2e+06 M⁻¹ s⁻¹. For the same substance, the Km [3] was 10.5 ± 1.8 µM, the kcat [3] was 105 ± 4.3 s⁻¹ and the kcat/Km [3] was 9.98e+06 M⁻¹ s⁻¹. It also gave a Km [4] of 146 ± 21.3 µM, a kcat [4] of 27.9 ± 8.6 s⁻¹ and a kcat/Km [4] of 190000 M⁻¹ s⁻¹.
